# Assay results as given in PMC5809688 (Molecular and Cellular Biology, 2017).
# Tests used:
# [1] = biological target: T1, p38α(T185G) (UniProt P47811 1-360, T185G); assay: ITC; ITC200 microcalorimeter (Microcal); T = 298 K; heats corrected for dilution; which partner was titrated is not stated; conditions: both partners purified
# T1 construct: PCR product described as a full-length p38α harboring the desired mutation; His6 tag followed by a TEV cleavage site at the N-terminal end; also called T185G mutant; p38α(T185G) mutant kinase
# T1 sequence (P47811 whole entry T185G): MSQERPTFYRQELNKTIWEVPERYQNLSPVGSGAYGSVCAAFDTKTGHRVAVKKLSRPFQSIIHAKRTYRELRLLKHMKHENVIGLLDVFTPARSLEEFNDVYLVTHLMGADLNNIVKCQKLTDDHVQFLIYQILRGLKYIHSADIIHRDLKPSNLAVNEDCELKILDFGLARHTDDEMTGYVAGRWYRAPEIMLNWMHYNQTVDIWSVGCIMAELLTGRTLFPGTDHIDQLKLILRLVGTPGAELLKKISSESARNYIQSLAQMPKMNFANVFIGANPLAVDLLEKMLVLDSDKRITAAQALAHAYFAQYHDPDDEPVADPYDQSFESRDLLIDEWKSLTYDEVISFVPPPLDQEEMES
# [2] = biological target: T2, wild-type p38α mitogen-activated protein kinase (UniProt P47811 1-360); assay: as above; conditions: both partners purified
# T2 construct: His6 tag followed by a TEV cleavage site at the N-terminal end; also called wtp38α
# T2 sequence (P47811 whole entry): as the sequence (P47811 whole entry T185G) above, with G185T counted along it
binder,measurement,setting,value
"GGRVYPVSVPYSSAQSTSKTSVTLSLVMP (peptide, UniProt Q15750 384-412, looked up)",Kd,[1],1100 nM
same,dH,[1],-9.6 kcal/mol
same,stoichiometry N,[1],0.7
same,Kd,[2],2900 nM
same,dH,[2],-13.6 kcal/mol
same,stoichiometry N,[2],0.8
